Residue numbers refer to the chain shown, from its start. Names and notes keep the numbering of the source.
How the values were obtained:
human Bcl-2 [1] = target: T1, human Bcl-2 (human, UniProt P10415 1-239); experiment: immunoprecipitation with anti-human Bcl-2 from FDC-P1 cells, anti-EE immunoblot
T1 construct: also called wt Bcl-2

human Bcl-2 [2] = target: T1, human Bcl-2; experiment: immunoprecipitation and immunoblot from FDC-P1 cells (FIG. 8B)
[3] = target: T2, Epstein-Barr virus BHRF-1 protein (Epstein-Barr virus, UniProt P03182 1-191); experiment: immunoprecipitation from co-transfected 293T cells
T2 sequence: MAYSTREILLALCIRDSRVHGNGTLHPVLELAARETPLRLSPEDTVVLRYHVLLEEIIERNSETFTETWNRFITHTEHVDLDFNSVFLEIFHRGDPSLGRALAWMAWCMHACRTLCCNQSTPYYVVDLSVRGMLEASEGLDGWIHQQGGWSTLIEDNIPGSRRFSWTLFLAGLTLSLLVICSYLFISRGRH

human Bcl-2 [4] = target: T1, human Bcl-2; experiment: yeast two-hybrid, beta-galactosidase activity with ONPG
dynein light chain = target: T3, dynein light chain (UniProt P63167 1-89, limits assumed); experiment: yeast two-hybrid, beta-galactosidase activity with ONPG; reference wild-type BimL
T3 construct: also called cytoplasmic dynein light chain

human Bcl-2 [5] = target: T1, human Bcl-2; experiment: immunoprecipitation and immunoblot from FDC-P1 cells

T1 sequence (P10415 whole entry): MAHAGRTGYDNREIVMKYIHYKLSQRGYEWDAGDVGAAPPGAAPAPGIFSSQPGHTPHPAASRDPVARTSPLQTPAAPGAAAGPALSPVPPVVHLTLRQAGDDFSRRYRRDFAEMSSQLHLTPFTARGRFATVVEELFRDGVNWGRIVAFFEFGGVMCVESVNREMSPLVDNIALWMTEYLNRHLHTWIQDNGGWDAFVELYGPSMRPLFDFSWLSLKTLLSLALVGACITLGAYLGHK
T3 sequence (P63167 whole entry): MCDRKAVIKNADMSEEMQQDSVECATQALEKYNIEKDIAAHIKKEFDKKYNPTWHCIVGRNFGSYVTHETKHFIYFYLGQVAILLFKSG

B1: EE-tagged BimEL (other)
chain: EYMPMEMAKQPSDVSSECDREGGQLQPAERPPQLRPGAPTSLQTEPQGNPDGEGDRCPHGSPQGPLAPPASPGPFATRSPLFIFVRRSSLLSRSSSGYFSFDTDRSPAPMSCDKSTQTPSPPCQAFNHYLSAMASIRQSQEEPEDLRPEIRIAQELRRIGDEFNETYTRRVFANDYREAEDHPQMVILQLLRFIFRLVWRRH
binding result (human Bcl-2 [1]): binds

B2: EE-tagged BimS (other)
chain: EYMPMEMAKQPSDVSSECDREGGQLQPAERPPQLRPGAPTSLQTEPQASIRQSQEEPEDLRPEIRIAQELRRIGDEFNETYTRRVFANDYREAEDHPQMVILQLLRFIFRLVWRRH
binding result (human Bcl-2 [1]): binds

B3: EE-tagged BimL (Glu-Glu epitope-tagged mouse BimL) (other)
chain: EYMPMEMAKQPSDVSSECDREGGQLQPAERPPQLRPGAPTSLQTEPQDRSPAPMSCDKSTQTPSPPCQAFNHYLSAMASIRQSQEEPEDLRPEIRIAQELRRIGDEFNETYTRRVFANDYREAEDHPQMVILQLLRFIFRLVWRRH
notes: N-terminal EE tag from a pEF vector derivative; also called EE-BimL; EE BimL
binding result (human Bcl-2 [2]): binds
binding result [3]: no binding

B4: murine BimL (wild-type) (other)
chain: MAKQPSDVSSECDREGGQLQPAERPPQLRPGAPTSLQTEPQDRSPAPMSCDKSTQTPSPPCQAFNHYLSAMASIRQSQEEPEDLRPEIRIAQELRRIGDEFNETYTRRVFANDYREAEDHPQMVILQLLRFIFRLVWRRH
notes: also called wild-type BimL; mBIM L
binding result (human Bcl-2 [4]): binds

B5: BimL mutant T54A (other)
chain: B4 chain with T54A
activity compared to wild-type BimL (dynein light chain): < 0.1%
binding result (human Bcl-2 [4]): binds

B6: BimL double mutant T54I/N65S (other)
chain: B4 chain with T54I, N65S
notes: also called T541/N65S; double mutant T541/N65S
activity compared to wild-type BimL (dynein light chain): < 0.1%
binding result (human Bcl-2 [4]): binds

B7: BimL mutant S53P (other)
chain: B4 chain with S53P
activity compared to wild-type BimL (dynein light chain): < 0.1%
binding result (human Bcl-2 [4]): binds

B8: BimL mutant D51G (other)
chain: B4 chain with D51G
notes: also called D51G mutant
binding result (human Bcl-2 [4]): binds

B9: EE-BimL ΔBH3 mutant (other)
chain: EYMPMEMAKQPSDVSSECDREGGQLQPAERPPQLRPGAPTSLQTEPQDRSPAPMSCDKSTQTPSPPCQAFNHYLSAMASIRQSQEEPEDLRPEIRIAQEALFNETYTRRVFANDYREAEDHPQMVILQLLRFIFRLVWRRH
notes: also called EE-Bim ΔBH3
binding result (human Bcl-2 [5]): no binding
